# From patent US20240043883A1 (Board of Trustees of Michigan State University, priority 2021, published 2024)
# Positions count from the first letter of the chain named. Names and notes keep the numbering of the source.
# B1: Corynebacterium glutamicum Cg10062 variant E114D-Y103F, SEQ ID NO: 71 (Corynebacterium glutamicum ATCC 13032; E115D/Y104F) (protein)
# chain: PTYTCWSQRIRISREAKQRIAEAITDAHHELAHAPKYLVQVIFNEVEPDSYFIAAQSASENHIWVQATIRSGRTEKQKEELLLRLTQEIALILGIPNEEVWVFITEIPGSNMTDYGRLLMEPGEEEKWFNSLPEGLRERLTELEGSSEENLYFQGLEHHHHHH
# B2: Corynebacterium glutamicum Cg10062 variant E114Q, SEQ ID NO: 60 (Corynebacterium glutamicum ATCC 13032; E115Q) (protein)
# chain: B1 chain with F103Y, D114Q
# B3: Corynebacterium glutamicum Cg10062 variant E114D, SEQ ID NO: 61 (Corynebacterium glutamicum ATCC 13032; E115D) (protein)
# chain: B1 chain with F103Y
# B4: Corynebacterium glutamicum Cg10062 variant E114N, SEQ ID NO: 62 (Corynebacterium glutamicum ATCC 13032; E115N) (protein)
# chain: B1 chain with F103Y, D114N
# B5: Corynebacterium glutamicum Cg10062, wild-type, SEQ ID NO: 59 (Corynebacterium glutamicum ATCC 13032) (protein)
# chain: B1 chain with F103Y, D114E
# B6: Cg10062: Tautomerase superfamily enzyme from Corynebacterium glutamicum, SEQ ID NO: 21; His6-tagged form SEQ ID NO: 59 (protein)
# chain: PTYTCWSQRIRISREAKQRIAEAITDAHHELAHAPKYLVQVIFNEVEPDSYFIAAQSASENHIWVQATIRSGRTEKQKEELLLRLTQEIALILGIPNEEVWVYITEIPGSNMTEYGRLLMEPGEEEKWFNSLPEGLRERLTELEGSSE
# modifications: Cg10062 from Corynebacterium glutamicum codon-optimized for Escherichia coli
# B7: Cg10062(E114D): Previously described Cg10062 variant with E114D mutation, SEQ ID NO: 23 and 61 (protein)
# chain: B6 chain with E114D
# modifications: Cg10062(E114D) from Corynebacterium glutamicum codon-optimized for Escherichia coli
# B8: Cg10062(E114Q): Previously described Cg10062 variant with E114Q mutation, SEQ ID NO: 22 and 60 (protein)
# chain: B6 chain with E114Q
# modifications: Cg10062(E114Q) from Corynebacterium glutamicum codon-optimized for Escherichia coli
# B9: Cg10062(E114N): Novel hydratase-only Cg10062 variant with E114N mutation, SEQ ID NO: 24 and 62 (protein)
# chain: B6 chain with E114N
# modifications: Cg10062(E114N) from Corynebacterium glutamicum codon-optimized for Escherichia coli
# B10: Y103F: Cg10062 variant with Y103F mutation, SEQ ID NO: 31 and 69 (protein)
# chain: B6 chain with Y103F
# modifications: Cg10062(Y103F) from Corynebacterium glutamicum codon-optimized for Escherichia coli
# B11: H28A: Cg10062 variant with H28A mutation, SEQ ID NO: 25 and 63 (protein)
# chain: B6 chain with H28A
# modifications: Cg10062(H28A) from Corynebacterium glutamicum codon-optimized for Escherichia coli
# B12: Cg10062(E114D-Y103F): Cg10062 double variant E114D-Y103F, SEQ ID NO: 33 and 71 (protein)
# chain: B6 chain with Y103F, E114D
# modifications: Cg10062(E114D-Y103F) from Corynebacterium glutamicum codon-optimized for Escherichia coli
# B13: R70A: Cg10062 variant with R70A mutation, SEQ ID NO: 26 and 64 (protein)
# chain: B6 chain with R70A
# modifications: Cg10062(R70A) from Corynebacterium glutamicum codon-optimized for Escherichia coli
# B14: Y103A: Cg10062 variant with Y103A mutation, SEQ ID NO: 30 and 68 (protein)
# chain: B6 chain with Y103A
# modifications: Cg10062(Y103A) from Corynebacterium glutamicum codon-optimized for Escherichia coli
# B15: R70K: Cg10062 variant with R70K mutation, SEQ ID NO: 27 and 65 (protein)
# chain: B6 chain with R70K
# modifications: Cg10062(R70K) from Corynebacterium glutamicum codon-optimized for Escherichia coli
# B16: R73A: Cg10062 variant with R73A mutation, SEQ ID NO: 28 and 66 (protein)
# chain: B6 chain with R73A
# modifications: Cg10062(R73A) from Corynebacterium glutamicum codon-optimized for Escherichia coli
# B17: E114A: Cg10062 variant with E114A mutation, SEQ ID NO: 32 and 70 (protein)
# chain: B6 chain with E114A
# modifications: Cg10062(E114A) from Corynebacterium glutamicum codon-optimized for Escherichia coli
# Substrate: C#CC(=O)O
# Assay: purified protein, by the assay type
# Format: biochemical, Corynebacterium glutamicum
# Conditions: other: ACA, 100 mM sodium phosphate pH 8.0, 25 °C
# Description: (§1) Steady-state kinetics were carried out using a Molecular Devices SpectraMax iD3 multi-mode microplate reader and Shimadzu UV2600 spectrophotometer. All assays were carried out in triplicate at 25° C. in 100 mM sodium phosphate pH 8.0 with a final volume of 200 μL, unless otherwise specified. The reduction of acetaldehyde by NADH-dependent alcohol dehydrogenase (ADH) was monitored by following the oxidation of NADH at 340 nm (ε=6220 M^−1 cm^−1).
# (§2) All stock solutions, except ADH, required for the kinetics assays used for determining hydratase and hydratase/decarboxylase activities were prepared in 100 mM sodium phosphate pH 8.0. […] Stock solutions of ADH were prepared using deionized water, as recommended by the manufacturer. […] The final pH of each assay was 8.
# (§3) The amount of enzyme used in each assay was varied in order to observe measurable activity. Thus, the rates obtained from this experiment were not used directly to compare the enzyme activity. These activities were only used for establishing the product profile of each enzyme. The ratios of MSA and acetaldehyde formed by each enzyme was determined by the coupled enzyme assay (FIG. 13), using the differences in rates in the presence and absence of MSAD (Table 10). […] All other components used for steady-state kinetics were identical to those used in the initial screening assays.
Molecule,Km,kcat,kcat/Km
B1,72 ± 7 µM,0.34 ± 0.01 s⁻¹,4700 ± 500 M⁻¹ s⁻¹
B2,64 ± 12 µM,0.66 ± 0.04 s⁻¹,10800 ± 2100 M⁻¹ s⁻¹
B3,557 ± 62 µM,1.12 ± 0.05 s⁻¹,2000 ± 200 M⁻¹ s⁻¹

# Substrate: C#CC(=O)O
# Assay: purified protein, by the assay type
# Conditions: other: ACA, 100 mM sodium phosphate pH 8.0, 25 °C
# Remark: another data set of the same source
Molecule,Km,kcat,kcat/Km
B4,45 ± 1 µM,,
B5,66 ± 4 µM,8.21 s⁻¹,124000 M⁻¹ s⁻¹

# Test system: not given
# Assay: not given
# Conditions: background statement; cited from earlier work
Molecule,acetaldehyde in product mixture from ACA,malonate semialdehyde in product mixture from ACA
B6,75%,25%

# Same assay, conditions: previously described variants, in words; cited from earlier work
Molecule,activity relative to the Cg10062,product of ACA hydration
B7,significantly lower activity,MSA exclusively
B8,significantly lower activity,MSA exclusively

# Test system: not listed separately
# Assay: Coupled enzyme assay (ADH, with and without MSAD): hydratase and hydratase/decarboxylase activity and product profile of Cg10062 and variants
# Format: biochemical
# Conditions: ACA 0.5 mM, pH 8; enzyme final concentration differs per variant (0.025-1.50 mg mL^−1), rates not directly comparable
# Description: as §1, §2, §3
Rate in the absence of MSAD,Rate in the presence of MSAD,Molecule
120 µM/min,146 µM/min,B6
no activity,67 µM/min,B9
no activity,90 µM/min,B7
43 µM/min,65 µM/min,B10
4.5 µM/min,12 µM/min,B11
no activity,102 µM/min,B8
no activity,39 µM/min,B12
no activity,no activity,B13
16 µM/min,38 µM/min,B14
no activity,no activity,B15
no activity,no activity,B16
11 µM/min,15 µM/min,B17

# Same assay, conditions: from Cg10062 activity in the presence and absence of MSAD; * from non-enzymatic decarboxylation of malonate semialdehyde
row,Product Ratio (%) acetaldehyde,Molecule
1,81%,B6
2,<1* %,B9
3,<1* %,B7
4,<1* %,B8
5,<1* %,B12

# Same assay, conditions: from Cg10062 activity in the presence and absence of MSAD; ACA substrate, pH 8.0, 25° C.
row,Product Ratio (%) malonate semialdehyde,Molecule
1,19%,B6
2,>99%,B9
3,>99%,B7
4,>99%,B8
5,>99%,B12

# Same assay, conditions: in words
row,product of ACA hydration,Molecule
1,produces only malonic semialdehyde,B9
